Data from patent publication US20180142032A1 (Sanofi, published 2018).
Substitutions are numbered along the chain they refer to.

T1: mLAMP1_hseq6_ΔGYQTI (mouse; human, UniProt P11438 25-369)
T1 construct: on cells; numbering read as for pXL6041; also called pXL6047; not shown: murine transmembrane domain and cytoplasmic tail with GYQTI replaced by 5 Ala
T1 chain: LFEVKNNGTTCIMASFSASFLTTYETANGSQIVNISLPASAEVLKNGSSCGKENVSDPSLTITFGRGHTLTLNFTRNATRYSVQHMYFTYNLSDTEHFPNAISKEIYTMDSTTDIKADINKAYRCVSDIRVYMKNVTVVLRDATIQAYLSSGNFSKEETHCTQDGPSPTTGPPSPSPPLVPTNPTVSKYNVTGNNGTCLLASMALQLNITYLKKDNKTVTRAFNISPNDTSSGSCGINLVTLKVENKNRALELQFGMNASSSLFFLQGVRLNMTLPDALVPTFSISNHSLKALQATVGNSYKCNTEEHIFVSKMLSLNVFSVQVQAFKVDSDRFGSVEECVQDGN

T2: mLAMP1_hseq6-11_ΔGYQTI (mouse; human, UniProt P11438 25-369)
T2 construct: on cells; also called pXL6041; not shown: murine transmembrane domain and cytoplasmic tail with GYQTI replaced by 5 Ala
T2 chain: T1 chain with S151N, G152S, N153S, K156R, E157G

T3: LAMP1::histag (human, UniProt P11279 29-382)
T3 construct: extracellular domain without signal peptide, C-terminal 6 His tag, made in HEK293 cells; also called recombinant human LAMP1; human LAMP1 (29-382)
T3 sequence: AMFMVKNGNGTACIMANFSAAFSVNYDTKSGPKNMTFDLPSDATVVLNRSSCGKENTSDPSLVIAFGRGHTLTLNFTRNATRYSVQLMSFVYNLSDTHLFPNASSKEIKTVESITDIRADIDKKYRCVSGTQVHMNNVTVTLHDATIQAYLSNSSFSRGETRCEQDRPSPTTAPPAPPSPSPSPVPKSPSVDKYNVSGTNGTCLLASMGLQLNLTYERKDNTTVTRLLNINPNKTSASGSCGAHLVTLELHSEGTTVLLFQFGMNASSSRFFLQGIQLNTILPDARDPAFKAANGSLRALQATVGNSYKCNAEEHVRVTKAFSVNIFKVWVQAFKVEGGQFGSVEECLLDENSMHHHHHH

T4: LAMP1_L12_mLAMP1_L34::histag (human/mouse hybrid)
T4 construct: human LAMP1 (29-195) and mouse LAMP1 (190-369), His tag; also called Loop1-2: hLAMP1 Loop3-4: mLAMP1
T4 chain: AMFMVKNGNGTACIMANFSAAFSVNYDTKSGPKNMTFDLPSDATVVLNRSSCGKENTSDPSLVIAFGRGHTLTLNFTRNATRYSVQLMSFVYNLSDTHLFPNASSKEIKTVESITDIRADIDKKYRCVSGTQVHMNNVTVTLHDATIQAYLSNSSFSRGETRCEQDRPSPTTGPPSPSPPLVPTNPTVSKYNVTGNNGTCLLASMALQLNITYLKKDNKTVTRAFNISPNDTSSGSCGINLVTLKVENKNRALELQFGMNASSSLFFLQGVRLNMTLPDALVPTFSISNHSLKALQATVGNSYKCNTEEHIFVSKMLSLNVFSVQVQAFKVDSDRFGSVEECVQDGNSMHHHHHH

T5: human LAMP1 at the cell surface (human, UniProt P11279 29-417)
T5 construct: native on tumour cells (PDX, Colo205, SW480, LS174T) or from the cloned CDS NM_005561.3 in HEK293 and HCT116; signal peptide 1-28 left out; also called huLAMP1; full length human LAMP1
T5 sequence: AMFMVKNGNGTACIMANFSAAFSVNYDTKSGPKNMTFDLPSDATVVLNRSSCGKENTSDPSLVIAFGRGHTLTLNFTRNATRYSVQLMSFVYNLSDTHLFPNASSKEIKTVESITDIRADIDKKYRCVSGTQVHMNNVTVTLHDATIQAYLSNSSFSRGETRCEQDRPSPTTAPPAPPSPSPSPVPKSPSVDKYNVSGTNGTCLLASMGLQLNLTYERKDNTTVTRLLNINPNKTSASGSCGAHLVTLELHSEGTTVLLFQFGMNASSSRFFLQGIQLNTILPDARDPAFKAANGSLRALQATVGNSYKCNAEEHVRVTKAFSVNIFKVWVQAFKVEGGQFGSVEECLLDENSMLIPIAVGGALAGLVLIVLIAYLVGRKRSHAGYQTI

B1: MAb1 (antibody, mouse IgG2a, kappa)
heavy: QVQLQQSGAELVKPGASVKMSCKASGYIFTNYNIHWVKKSPGQGLEWIGAIYPGNGDAPYSQKFKDKATLTADKSSSTTYMQLSRLTSEDSAVYYCVRANWDVAFAYWGQGTLVSVSAAKTTAPSVYPLAPVCGDTTGSSVTLGCLVKGYFPEPVTLTWNSGSLSSGVHTFPAVLQSDLYTLSSSVTVTSSTWPSQSITCNVAHPASSTKVDKKIEPRGPTIKPCPPCKCPAPNLLGGPSVFIFPPKIKDVLMISLSPIVTCVVVDVSEDDPDVQISWFVNNVEVHTAQTQTHREDYNSTLRVVSALPIQHQDWMSGKEFKCKVNNKDLPAPIERTISKPKGSVRAPQVYVLPPPEEEMTKKQVTLTCMVTDFMPEDIYVEWTNNGKTELNYKNTEPVLDSDGSYFMYSKLRVEKKNWVERNSYSCSVVHEGLHNHHTTKSFSRTPGK
light: DIQMTQSPPSLSASLGGKVTITCKASQDIDRYMAWYQDKPGKGPRLLIHDTSTLQPGIPSRFSGSGSGRDYSFSISNLEPEDIATYYCLQYDNLWTFGGGTKLEIKRADAAPTVSIFPPSSEQLTSGGASVVCFLNNFYPKDINVKWKIDGSERQNGVLNSWTDQDSKDSTYSMSSTLTLTKDEYERHNSYTCEATHKTSTSPIVKSFNRNEC
notes: murine monoclonal IgG, kappa, from hybridoma; also called murine MAb1
B2: MAb3 (antibody, V domains shown)
VH: QIQLVQSGPELKKPGETVKISCKASGYIFTNYGMNWVKQAPGKGLKWMGWINTYTGESRYADDFKGRFALSLETSASTAYLQINNLENEDMATYFCAREDYYGNSPWFFDVWGAGTTVTVSS
VL: DIQMTQTTSSLSASLGDRVTISCNASQGINKYLNWYQQKPDGTVKLLIYYTSTLHSGVPSRFSGSGSGTDYSLTINNLEPEDIATYYCQQYTKLPFTFGSGTKLEIK
notes: murine monoclonal IgG, kappa, from hybridoma; also called murine MAb3
B3: MAb2 (antibody, mouse IgG1, kappa)
heavy: QVQLQQSAAELARPGASVKMSCKASGYTFTSYTMHWVKQRPGQGLEWIGYFNPSSGYPEYNQKFKDKTTLTADKSSNTAFIQLNSLTSEDSAVYYCSRGYYYGSRGYALDFWGQGASVTVSSAKTTPPSVYPLAPGSAAQTNSMVTLGCLVKGYFPEPVTVTWNSGSLSSGVHTFPAVLQSDLYTLSSSVTVPSSTWPSETVTCNVAHPASSTKVDKKIVPRDCGCKPCICTVPEVSSVFIFPPKPKDVLTITLTPKVTCVVVDISKDDPEVQFSWFVDDVEVHTAQTQPREEQFNSTFRSVSELPIMHQDWLNGKEFKCRVNSAAFPAPIEKTISKTKGRPKAPQVYTIPPPKEQMAKDKVSLTCMITDFFPEDITVEWQWNGQPAENYKNTQPIMDTDGSYFVYSKLNVQKSNWEAGNTFTCSVLHEGLHNHHTEKSLSHSPGK
light: NIVLTQSPVSLAVSLGQRATISCRASESVDINGNTFMHWYQQKPGQSPKLVIYAASNIESGVPARFSGSGSSTDFTFTIDPVEADDVATYYCQQNIEDPWTFGGGTKVEIKRADAAPTVSIFPPSSEQLTSGGASVVCFLNNFYPKDINVKWKIDGSERQNGVLNSWTDQDSKDSTYSMSSTLTLTKDEYERHNSYTCEATHKTSTSPIVKSFNRNEC
notes: murine monoclonal IgG, kappa, from hybridoma; also called murine MAb2

Columns and labels:
mLAMP1_hseq6_ΔGYQTI = target: T1, mLAMP1_hseq6_ΔGYQTI; experiment: flow cytometry, transfected 293-F cells, experiment 1
mLAMP1_hseq6-11_ΔGYQTI = target: T2, mLAMP1_hseq6-11_ΔGYQTI; experiment: as above
LAMP1::histag = target: T3, LAMP1::histag; experiment: ELISA on secreted LAMP1
[1] = target: T4, LAMP1_L12_mLAMP1_L34::histag; experiment: ELISA
[2] = target: T5, human LAMP1 at the cell surface; experiment: flow cytometry, dissociated CR-IGR-034P colon PDX cells
Protocol: Advanced human primary colon tumor CR-IGR-034P was obtained from Patient-derived xenograft in mice. Tumor CR-IGR-034P was enzymatically dissociated using collagenase Type IV (Invitrogen; #17104-019) and deoxyribonuclease I (Invitrogen; #18047-019) for 1 h at 4° C. Cell viability was estimated by Viacount application using Guava® easyCyte™ 8HT Flow Cytometry System. […] 100 μL/well of goat anti-mouse IgG conjugated with Alexa647 (Invitrogen; # A2135) or goat anti-human IgG conjugated with Alexa488 (Invitrogen; # A11013) was added for 45 min at 4° C. and washed three times with PBS 1% BSA. The antibody binding was evaluated after centrifugation and resuspension of cells by adding 200 μl/well PBS 1% BSA and read using Guava® easyCyte™ 8HT Flow Cytometry System. EC50 values were estimated using BIOST@T-SPEED software.

Row | Binder | binding result (mLAMP1_hseq6_ΔGYQTI) | mean fluorescence (mLAMP1_hseq6_ΔGYQTI) | mean fluorescence (mLAMP1_hseq6-11_ΔGYQTI) | EC50 (LAMP1::histag) [nM] | EC50 [1] [nM] | EC50 [2] [nM] | binding result (mLAMP1_hseq6-11_ΔGYQTI)
1 | B1 | no binding | 7 | 680 | ~0.2 | 0.18 | – | –
2 | B2 | – | – | – | – | – | 6 | –
3 | B3 | no binding | 25 | 28 | ~0.3 | 0.25 | 14 | no binding
